Experimental data published in doi:10.1101/2023.08.04.551977 (bioRxiv, 2023).
Like-named read-outs stand apart in the source and are kept apart here. Values belong to the molecule of their own block, whether it stands above or below them.

Columns and labels:
Wild-type menin (human) [1] = target: Wild-type menin (human) (UniProt O00255); test: MST
[2] = target: His-sumo-AR MBR (aa. G473-T560); test: BLI
menin Δ460-519 (human) = menin Δ460-519 (human) (UniProt O00255); test: MST
[3] = target: menin Δ460-519/ 586-615 (human) (UniProt O00255); test: MST
menin-MLL complex = menin-MLL complex (UniProt O00255); test: MST
Wild-type menin (human) [4] = target: Wild-type menin (human) (UniProt O00255); test: MST; remark: listed apart in the source
[5] = target: His-sumo-AR MBR (aa. G473-T560); test: BLI; remark: listed apart in the source
His-sumo-AR MBR A = His-sumo-AR MBR A (UniProt P10275); test: BLI
His-sumo-AR MBR B = His-sumo-AR MBR B (UniProt P10275); test: BLI
Wild-type menin (human) [6] = target: Wild-type menin (human) (UniProt O00255); test: SEC
Wild-type menin (human) [7] = target: Wild-type menin (human) (UniProt O00255); test: dynamic light scattering
AR MBR (aa. G473-T560) = test: NMR titration
HPLC-SAXS = target: the molecule itself; test: HPLC-SAXS
AR-v7 = target: T1, AR-v7 (UniProt P10275-3 1-644); test: MST
T1 sequence: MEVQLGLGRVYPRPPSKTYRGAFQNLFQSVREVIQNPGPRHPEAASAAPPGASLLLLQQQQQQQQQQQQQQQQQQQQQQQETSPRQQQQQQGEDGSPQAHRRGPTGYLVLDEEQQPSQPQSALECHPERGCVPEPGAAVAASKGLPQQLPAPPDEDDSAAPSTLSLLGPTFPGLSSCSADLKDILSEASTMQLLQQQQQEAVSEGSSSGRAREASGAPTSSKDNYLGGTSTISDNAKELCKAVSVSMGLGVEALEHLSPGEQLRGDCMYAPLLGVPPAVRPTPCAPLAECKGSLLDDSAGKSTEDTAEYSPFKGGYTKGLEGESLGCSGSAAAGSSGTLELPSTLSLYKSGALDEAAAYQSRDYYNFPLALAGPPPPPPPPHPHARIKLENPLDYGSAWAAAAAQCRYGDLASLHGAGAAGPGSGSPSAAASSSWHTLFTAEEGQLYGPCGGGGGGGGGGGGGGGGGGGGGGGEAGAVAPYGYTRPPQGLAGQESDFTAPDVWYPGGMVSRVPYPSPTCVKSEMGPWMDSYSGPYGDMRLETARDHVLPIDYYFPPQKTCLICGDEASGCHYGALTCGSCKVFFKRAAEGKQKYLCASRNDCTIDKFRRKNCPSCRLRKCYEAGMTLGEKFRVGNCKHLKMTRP

MST = target: the molecule itself; test: MST
dynamic light scattering = target: the molecule itself; test: dynamic light scattering

Kd (Wild-type menin (human) [1]): 24 µM
Molecule: His-sumo-AR MBR B (from UniProt P10275 509-559) (domain or fragment)

Kd [2]: 10.5 µM
Molecule: menin-MLL complex (from UniProt O00255;Q03164)

Kd (Wild-type menin (human) [1]): 1.7 µM | Kd (menin Δ460-519 (human)): 6.3 µM | Kd [3]: 2 µM | Kd (menin-MLL complex): 10.8 µM | Kd (Wild-type menin (human) [4]): 9.8 µM
Molecule: His-sumo-AR MBR (aa. G473-T560) (domain or fragment)

Kd [5]: 10.5 µM | Kd (His-sumo-AR MBR A): 3000 µM | Kd (His-sumo-AR MBR B): 47 µM | stoichiometry N (Wild-type menin (human) [6]): 2 | stoichiometry N (Wild-type menin (human) [7]): 2 | Kd (Wild-type menin (human) [1]): 10.4 µM
B1: Wild-type menin (natural protein)
chain: MGLKAAQKTLFPLRSIDDVVRLFAAELGREEPDLVLLSLVLGFVEHFLAVNRVIPTNVPELTFQPSPAPDPPGGLTYFPVADLSIIAALYARFTAQIRGAVDLSLYPREGGVSSRELVKKVSDVIWNSLSRSYFKDRAHIQSLFSFITGTKLDSSGVAFAVVGACQALGLRDVHLALSEDHAWVVFGPNGEQTAEVTWHGKGNEDRRGQTVNAGVAERSWLYLKGSYMRCDRKMEVAFMVCAINPSIDLHTDSLELLQLQQKLLWLLYDLGHLERYPMALGNLADLEELEPTPGRPDPLTLYHKGIASAKTYYRDEHIYPYMYLAGYHCRNRNVREALQAWADTATVIQDYNYCREDEEIYKEFFEVANDVIPNLLKEAASLLEAGEERPGEQSQGTQSQGSALQDPECFAHLLRFYDGICKWEEGSPTPVLHVGWATFLVQSLGRFEGQVRQKVRIVSREAEAAEAEEPWGEEAREGRRRGPRRESKPEEPPPPKKPALDKGLGTGQGAVSGPPRKPPGTVAGTARGPEGGSTAQVPAPTASPPPEGPVLTFQSEKMKGMKELLVATKINSSAIKLQLTAQSQVQMKKQKVSTPSDYTLSFLKRQRKGL
modifications: RED-NHS 2nd generation dye label on the labelled partner in the MST experiments

Continued, molecule first:

Molecule: His-sumo-AR MBR A (from UniProt P10275 473-518) (domain or fragment)
Kd (Wild-type menin (human) [1]): 1000 µM

B2: menin Δ460-519 (natural protein)
chain: MGLKAAQKTLFPLRSIDDVVRLFAAELGREEPDLVLLSLVLGFVEHFLAVNRVIPTNVPELTFQPSPAPDPPGGLTYFPVADLSIIAALYARFTAQIRGAVDLSLYPREGGVSSRELVKKVSDVIWNSLSRSYFKDRAHIQSLFSFITGTKLDSSGVAFAVVGACQALGLRDVHLALSEDHAWVVFGPNGEQTAEVTWHGKGNEDRRGQTVNAGVAERSWLYLKGSYMRCDRKMEVAFMVCAINPSIDLHTDSLELLQLQQKLLWLLYDLGHLERYPMALGNLADLEELEPTPGRPDPLTLYHKGIASAKTYYRDEHIYPYMYLAGYHCRNRNVREALQAWADTATVIQDYNYCREDEEIYKEFFEVANDVIPNLLKEAASLLEAGEERPGEQSQGTQSQGSALQDPECFAHLLRFYDGICKWEEGSPTPVLHVGWATFLVQSLGRFEGQVRQKVRIVSGTVAGTARGPEGGSTAQVPAPTASPPPEGPVLTFQSEKMKGMKELLVATKINSSAIKLQLTAQSQVQMKKQKVSTPSDYTLSFLKRQRKGL
modifications: RED-NHS 2nd generation dye label on the labelled partner in the MST experiments
Kd (AR MBR (aa. G473-T560)): 15.7 µM | stoichiometry N (HPLC-SAXS): 2 | Kd (AR-v7): 1.7 ± 1.8 µM | Kd (MST): 1.9 ± 0.9 µM

B3: menin Δ460-519/ 586-615 (natural protein)
chain: MGLKAAQKTLFPLRSIDDVVRLFAAELGREEPDLVLLSLVLGFVEHFLAVNRVIPTNVPELTFQPSPAPDPPGGLTYFPVADLSIIAALYARFTAQIRGAVDLSLYPREGGVSSRELVKKVSDVIWNSLSRSYFKDRAHIQSLFSFITGTKLDSSGVAFAVVGACQALGLRDVHLALSEDHAWVVFGPNGEQTAEVTWHGKGNEDRRGQTVNAGVAERSWLYLKGSYMRCDRKMEVAFMVCAINPSIDLHTDSLELLQLQQKLLWLLYDLGHLERYPMALGNLADLEELEPTPGRPDPLTLYHKGIASAKTYYRDEHIYPYMYLAGYHCRNRNVREALQAWADTATVIQDYNYCREDEEIYKEFFEVANDVIPNLLKEAASLLEAGEERPGEQSQGTQSQGSALQDPECFAHLLRFYDGICKWEEGSPTPVLHVGWATFLVQSLGRFEGQVRQKVRIVSGTVAGTARGPEGGSTAQVPAPTASPPPEGPVLTFQSEKMKGMKELLVATKINSSAIKLQLTAQSQV
modifications: RED-NHS 2nd generation dye label on the labelled partner in the MST experiments
Kd (MST): 3.2 ± 0.8 µM

B4: AR MBR-DBD-LBD (domain or fragment)
chain: GEAGAVAPYGYTRPPQGLAGQESDFTAPDVWYPGGMVSRVPYPSPTCVKSEMGPWMDSYSGPYGDMRLETARDHVLPIDYYFPPQKTCLICGDEASGCHYGALTCGSCKVFFKRAAEGKQKYLCASRNDCTIDKFRRKNCPSCRLRKCYEAGMTLGARKLKKLGNLKLQEEGEASSTTSPTEETTQKLTVSHIEGYECQPIFLNVLEAIEPGVVCAGHDNNQPDSFAALLSSLNELGERQLVHVVKWAKALPGFRNLHVDDQMAVIQYSWMGLMVFAMGWRSFTNVNSRMLYFAPDLVFNEYRMHKSRMYSQCVRMRHLSQEFGWLQITPQEFLCMKALLLFSIIPVDGLKNQKFFDELRMNYIKELDRIIACKRKNPTSCSRRFYQLTKLLDSVQPIARELHQFTFDLLIKSHMVSVDFPEMMAEIISVQVPKILSGKVKPIYFHTQ
stoichiometry N (dynamic light scattering): 2
